Measurements from paper PMC5097169 (2016).

T1: GST fusion to Xenopus laevis CENP-A amino terminus (amino acids 1–50) (Xenopus laevis (African clawed frog), UniProt Q569M3)
T1 chain: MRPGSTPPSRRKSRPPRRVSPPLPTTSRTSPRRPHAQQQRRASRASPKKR

B1: Flag RbAp46 (Xenopus, recombinant) (protein)
chain: MANKEMFEDTVEERVINEEYKIWKKNTPFLYDLVMTHALEWPSLTVQWLPDVTRPEGKDYALHWLVLGTHTSDEQNHLVVARVQVPNDDAQFDASHYDSEKGEFGGFGSVSGKIETEIKINHEGEVNRARYMPQNPCIIATKTPSADVLVFDYTKHPSKPDPSGECSPDLRLRGHQKEGYGLSWNSNLSGHLLSASDDHTVCLWDISAGPKEGKVVDAKAVFTGHSAVVEDVAWHLLHESLFGSVADDQKLMIWDTRSNTTSKPSHSVDAHTAEVNCLSFNPYSEFILATGSADKTVALWDLRNLKLKLHSFESHKDEIFQVHWSPHNETILASSGTDRRLNVWDLSKIGEEQSAEDAEDGPPELLFIHGGHTAKISDFSWNPNEPWVICSVSEDNIMQIWQMAENIYNDEEPDIPASELEAQGS
B2: Flag Hat1 (Xenopus, recombinant) (protein)
chain: MEKKLAEYKCNTNEAIQLKLVRFPEDIEDESMTFNPEYSHQIFGDEEVAFGYKGLKILLYYSAGNLSTMFRVQYSSKVNDKFDLVQPDDVENKIHELIPAGFCSGTDDFITLLEKEVNFKPFGTIVHTYTVHNEDAGEDISYQIYKADMTSPGFREYHERLQTFMMWFIETASYIDVDDEKWDYFLVFEKYNKDGATLFATVGYMTVYNYYVYPDKTRPRVSQMLVLPPFQGEGHGAQLMETVHRYYVSAPNILDITAEDPSENFVRLRDFVLVKLCQNLPCFSPEKLLCGFSKEMVTEAQEKLKINKKHARRVYEILRLRATDMSDPEKSKAYRLDVKKRLVGPYKKNQREMAKMQQCLRPEELTNQMNQIDLNTQHEQLEESYQQLVEEYRRIVERLAQA

Tests used:
[1] = target: T1, GST fusion to Xenopus laevis CENP-A …; assay: GST-tail resin pull-down, Coomassie
[2] = target: Flag RbAp46 (Xenopus, recombinant) (Xenopus laevis (African clawed frog), UniProt Q8AVH1); assay: GST-CENP-A tail resin pull-down (bridged), Coomassie; inferred from RbAp46-dependent recovery of Hat1 on the immobilized GST-CENP-A N-terminal tail (1-50); no direct two-protein test

| Binder | binding result [1] | binding result [2] |
| --- | --- | --- |
| B1 | binds | – |
| B2 | – | binds |
